Biological target: TonB_(ΔTMD) L194C labeled with BODIPY FL (Escherichia coli) (UniProt P02929)
Experiment: fluorescence polarisation

Substance: BtuB with bound colicin E3 receptor-binding fragment (ColE3R) (from UniProt P06129 21-614; P00646 1-551) (complex)
- Kd: 1500 nM

Source: article PMC3630801
